Measurements published in the supplement of paper PMC9112550, “Optimization of the antimicrobial peptide Bac7 by deep mutational scanning” (BMC Biology, 2022).

Tested on: Escherichia coli TOP10
Test: shrunken log2 fold change of peptide-encoding DNA abundance (4.5 h post-induction vs induction); higher = less antimicrobial activity (less host growth inhibition)
Conditions: time post-induction: 4.5 h; library: site-saturation at positions 5, 18, 19, 20
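Also: peptides expressed intracellularly from a pBAD plasmid library in pooled LB shake-flask culture, induced with 0.3% L-arabinose, DNA abundance read by NGS, three biological replicates, DESeq2 with apeglm shrinkage.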

RRIRSRPPRLPRPRPRPVIGPRP
shrunken log2 fold change: 0.0912

RRIRSRPPRLPRPRPRPVITPRP
shrunken log2 fold change: -0.0353

RRIRSRPPRLPRPRPRPVKMPRP
shrunken log2 fold change: 0.0674

RRIRSRPPRLPRPRPRPVLHPRP
shrunken log2 fold change: -0.201

RRIRSRPPRLPRPRPRPVMYPRP
shrunken log2 fold change: -0.0786

RRIRSRPPRLPRPRPRPVNLPRP
shrunken log2 fold change: -0.0294

RRIRSRPPRLPRPRPRPVQQPRP
shrunken log2 fold change: -0.00468

RRIRSRPPRLPRPRPRPVRYPRP
shrunken log2 fold change: 0.0544

RRIRSRPPRLPRPRPRPVSAPRP
shrunken log2 fold change: 2.53

RRIRSRPPRLPRPRPRPVVDPRP
shrunken log2 fold change: 0.125

RRIRSRPPRLPRPRPRPVVEPRP
shrunken log2 fold change: 0.13

RRIRSRPPRLPRPRPRPVWYPRP
shrunken log2 fold change: 0.154

RRIRSRPPRLPRPRPRPWEVPRP
shrunken log2 fold change: 0.188

RRIRSRPPRLPRPRPRPWHYPRP
shrunken log2 fold change: -0.162

RRIRSRPPRLPRPRPRPWKKPRP
shrunken log2 fold change: -0.162

RRIRSRPPRLPRPRPRPWKQPRP
shrunken log2 fold change: -0.00145

RRIRSRPPRLPRPRPRPWKWPRP
shrunken log2 fold change: 0.0473

RRIRSRPPRLPRPRPRPWLIPRP
shrunken log2 fold change: -0.0422

RRIRSRPPRLPRPRPRPWMFPRP
shrunken log2 fold change: -0.0604

RRIRSRPPRLPRPRPRPWPEPRP
shrunken log2 fold change: 0.519

RRIRSRPPRLPRPRPRPWREPRP
shrunken log2 fold change: 0.0924

RRIRSRPPRLPRPRPRPWRSPRP
shrunken log2 fold change: 0.00174

RRIRSRPPRLPRPRPRPWSIPRP
shrunken log2 fold change: 0.0338

RRIRSRPPRLPRPRPRPWSRPRP
shrunken log2 fold change: -0.199

RRIRSRPPRLPRPRPRPWTAPRP
shrunken log2 fold change: -0.22

RRIRSRPPRLPRPRPRPWTNPRP
shrunken log2 fold change: -0.0183

RRIRSRPPRLPRPRPRPWVGPRP
shrunken log2 fold change: -0.452

RRIRSRPPRLPRPRPRPWVVPRP
shrunken log2 fold change: -0.00703

RRIRSRPPRLPRPRPRPYCQPRP
shrunken log2 fold change: -0.164

RRIRSRPPRLPRPRPRPYCVPRP
shrunken log2 fold change: -0.912

RRIRSRPPRLPRPRPRPYDLPRP
shrunken log2 fold change: -0.261

RRIRSRPPRLPRPRPRPYEHPRP
shrunken log2 fold change: -0.493

RRIRSRPPRLPRPRPRPYFFPRP
shrunken log2 fold change: -0.682

RRIRSRPPRLPRPRPRPYFYPRP
shrunken log2 fold change: -0.695

RRIRSRPPRLPRPRPRPYHTPRP
shrunken log2 fold change: -0.652

RRIRSRPPRLPRPRPRPYKGPRP
shrunken log2 fold change: -0.186

RRIRSRPPRLPRPRPRPYLLPRP
shrunken log2 fold change: -0.613

RRIRSRPPRLPRPRPRPYNEPRP
shrunken log2 fold change: -0.554

RRIRSRPPRLPRPRPRPYPTPRP
shrunken log2 fold change: -0.234

RRIRSRPPRLPRPRPRPYPWPRP
shrunken log2 fold change: -0.591

RRIRSRPPRLPRPRPRPYQRPRP
shrunken log2 fold change: -0.103

RRIRSRPPRLPRPRPRPYQVPRP
shrunken log2 fold change: -0.0683

RRIRSRPPRLPRPRPRPYRFPRP
shrunken log2 fold change: -0.134

RRIRSRPPRLPRPRPRPYRVPRP
shrunken log2 fold change: -0.0218

RRIRSRPPRLPRPRPRPYSIPRP
shrunken log2 fold change: -0.376

RRIRSRPPRLPRPRPRPYSVPRP
shrunken log2 fold change: -0.582

RRIRSRPPRLPRPRPRPYTEPRP
shrunken log2 fold change: -0.186

RRIRSRPPRLPRPRPRPYTMPRP
shrunken log2 fold change: -0.19

RRIRSRPPRLPRPRPRPYVWPRP
shrunken log2 fold change: -0.332

RRIRSRPPRLPRPRPRPYWAPRP
shrunken log2 fold change: -0.177

RRIRSRPPRLPRPRPRPYWCPRP
shrunken log2 fold change: -0.161

RRIRSRPPRLPRPRPRPYWYPRP
shrunken log2 fold change: -1.45

RRIRSRPPRLPRPRPRPYYGPRP
shrunken log2 fold change: -0.197

RRIRSRPPRLPRPRPRPYYIPRP
shrunken log2 fold change: -0.461

RRIRTRPPRLPRPRPRPAAMPRP
shrunken log2 fold change: 0.154

RRIRTRPPRLPRPRPRPACEPRP
shrunken log2 fold change: 0.0463

RRIRTRPPRLPRPRPRPADGPRP
shrunken log2 fold change: -0.0563

RRIRTRPPRLPRPRPRPADPPRP
shrunken log2 fold change: 0.0203

RRIRTRPPRLPRPRPRPAEKPRP
shrunken log2 fold change: 0.0882

RRIRTRPPRLPRPRPRPAFKPRP
shrunken log2 fold change: 0.143

RRIRTRPPRLPRPRPRPAFSPRP
shrunken log2 fold change: 0.193

RRIRTRPPRLPRPRPRPAFWPRP
shrunken log2 fold change: 0.26

RRIRTRPPRLPRPRPRPAGLPRP
shrunken log2 fold change: 0.0286

RRIRTRPPRLPRPRPRPAHHPRP
shrunken log2 fold change: -0.0336

RRIRTRPPRLPRPRPRPAHYPRP
shrunken log2 fold change: -0.227

RRIRTRPPRLPRPRPRPAIAPRP
shrunken log2 fold change: 0.101

RRIRTRPPRLPRPRPRPALKPRP
shrunken log2 fold change: 0.206

RRIRTRPPRLPRPRPRPAMCPRP
shrunken log2 fold change: 0.131

RRIRTRPPRLPRPRPRPAMEPRP
shrunken log2 fold change: -0.0176

RRIRTRPPRLPRPRPRPAMQPRP
shrunken log2 fold change: -0.00933

RRIRTRPPRLPRPRPRPATKPRP
shrunken log2 fold change: 0.0756

RRIRTRPPRLPRPRPRPATSPRP
shrunken log2 fold change: -0.12

RRIRTRPPRLPRPRPRPAWQPRP
shrunken log2 fold change: -0.0092

RRIRTRPPRLPRPRPRPAWVPRP
shrunken log2 fold change: 0.285

RRIRTRPPRLPRPRPRPAYSPRP
shrunken log2 fold change: 0.0215

RRIRTRPPRLPRPRPRPCAGPRP
shrunken log2 fold change: -0.0463

RRIRTRPPRLPRPRPRPCAHPRP
shrunken log2 fold change: -0.209

RRIRTRPPRLPRPRPRPCCAPRP
shrunken log2 fold change: 0.125

RRIRTRPPRLPRPRPRPCCGPRP
shrunken log2 fold change: 0.635

RRIRTRPPRLPRPRPRPCCNPRP
shrunken log2 fold change: -0.282

RRIRTRPPRLPRPRPRPCCQPRP
shrunken log2 fold change: 0.0313

RRIRTRPPRLPRPRPRPCDKPRP
shrunken log2 fold change: -0.138

RRIRTRPPRLPRPRPRPCEVPRP
shrunken log2 fold change: 0.0427

RRIRTRPPRLPRPRPRPCGGPRP
shrunken log2 fold change: 0.169

RRIRTRPPRLPRPRPRPCHDPRP
shrunken log2 fold change: -0.215

RRIRTRPPRLPRPRPRPCHSPRP
shrunken log2 fold change: -0.039

RRIRTRPPRLPRPRPRPCHVPRP
shrunken log2 fold change: -0.114

RRIRTRPPRLPRPRPRPCIGPRP
shrunken log2 fold change: -0.0176

RRIRTRPPRLPRPRPRPCIMPRP
shrunken log2 fold change: -0.2

RRIRTRPPRLPRPRPRPCINPRP
shrunken log2 fold change: -0.686

RRIRTRPPRLPRPRPRPCITPRP
shrunken log2 fold change: -0.96

RRIRTRPPRLPRPRPRPCKDPRP
shrunken log2 fold change: 0.027

RRIRTRPPRLPRPRPRPCKLPRP
shrunken log2 fold change: -0.858

RRIRTRPPRLPRPRPRPCKWPRP
shrunken log2 fold change: -0.000493

RRIRTRPPRLPRPRPRPCLFPRP
shrunken log2 fold change: -0.16

RRIRTRPPRLPRPRPRPCNRPRP
shrunken log2 fold change: -0.144

RRIRTRPPRLPRPRPRPCPCPRP
shrunken log2 fold change: -0.366

RRIRTRPPRLPRPRPRPCQYPRP
shrunken log2 fold change: -0.293

RRIRTRPPRLPRPRPRPCRIPRP
shrunken log2 fold change: -0.0965

RRIRTRPPRLPRPRPRPCTWPRP
shrunken log2 fold change: -0.0134

RRIRTRPPRLPRPRPRPCVKPRP
shrunken log2 fold change: 0.0506

RRIRTRPPRLPRPRPRPCVYPRP
shrunken log2 fold change: -0.243

RRIRTRPPRLPRPRPRPCWFPRP
shrunken log2 fold change: -0.21

RRIRTRPPRLPRPRPRPCWVPRP
shrunken log2 fold change: -0.42

RRIRTRPPRLPRPRPRPCWYPRP
shrunken log2 fold change: 4

RRIRTRPPRLPRPRPRPDAHPRP
shrunken log2 fold change: 0.128

RRIRTRPPRLPRPRPRPDAYPRP
shrunken log2 fold change: -0.134

RRIRTRPPRLPRPRPRPDDKPRP
shrunken log2 fold change: -0.294

RRIRTRPPRLPRPRPRPDDWPRP
shrunken log2 fold change: 0.276

RRIRTRPPRLPRPRPRPDEMPRP
shrunken log2 fold change: -0.023

RRIRTRPPRLPRPRPRPDFEPRP
shrunken log2 fold change: 0.0498

RRIRTRPPRLPRPRPRPDFTPRP
shrunken log2 fold change: -0.0888

RRIRTRPPRLPRPRPRPDGQPRP
shrunken log2 fold change: 0.0697

RRIRTRPPRLPRPRPRPDIAPRP
shrunken log2 fold change: -0.0105

RRIRTRPPRLPRPRPRPDKTPRP
shrunken log2 fold change: -0.108

RRIRTRPPRLPRPRPRPDKVPRP
shrunken log2 fold change: -0.0275

RRIRTRPPRLPRPRPRPDMCPRP
shrunken log2 fold change: -0.0287

RRIRTRPPRLPRPRPRPDMSPRP
shrunken log2 fold change: -0.0305

RRIRTRPPRLPRPRPRPDNDPRP
shrunken log2 fold change: 0.0177

RRIRTRPPRLPRPRPRPDNFPRP
shrunken log2 fold change: -0.231

RRIRTRPPRLPRPRPRPDNGPRP
shrunken log2 fold change: -0.225

RRIRTRPPRLPRPRPRPDPYPRP
shrunken log2 fold change: 0.001

RRIRTRPPRLPRPRPRPDQAPRP
shrunken log2 fold change: -0.0986

RRIRTRPPRLPRPRPRPDQYPRP
shrunken log2 fold change: -0.0122

RRIRTRPPRLPRPRPRPDRIPRP
shrunken log2 fold change: 0.00097

RRIRTRPPRLPRPRPRPDRMPRP
shrunken log2 fold change: -0.0127

RRIRTRPPRLPRPRPRPDSAPRP
shrunken log2 fold change: 0.0773

RRIRTRPPRLPRPRPRPDTQPRP
shrunken log2 fold change: 0.0514

RRIRTRPPRLPRPRPRPDVNPRP
shrunken log2 fold change: 0.21

RRIRTRPPRLPRPRPRPDWKPRP
shrunken log2 fold change: -0.0156

RRIRTRPPRLPRPRPRPDWMPRP
shrunken log2 fold change: 0.0121

RRIRTRPPRLPRPRPRPDWPPRP
shrunken log2 fold change: 0.135

RRIRTRPPRLPRPRPRPDYTPRP
shrunken log2 fold change: -0.606

RRIRTRPPRLPRPRPRPDYWPRP
shrunken log2 fold change: -0.149

RRIRTRPPRLPRPRPRPEAQPRP
shrunken log2 fold change: 0.00719

RRIRTRPPRLPRPRPRPEDKPRP
shrunken log2 fold change: -0.0305

RRIRTRPPRLPRPRPRPEDNPRP
shrunken log2 fold change: 0.168

RRIRTRPPRLPRPRPRPEDWPRP
shrunken log2 fold change: 0.386

RRIRTRPPRLPRPRPRPEEPPRP
shrunken log2 fold change: 0.0165

RRIRTRPPRLPRPRPRPEFMPRP
shrunken log2 fold change: 0.0647

RRIRTRPPRLPRPRPRPEFQPRP
shrunken log2 fold change: -0.161

RRIRTRPPRLPRPRPRPEGQPRP
shrunken log2 fold change: 0.0344

RRIRTRPPRLPRPRPRPEHAPRP
shrunken log2 fold change: -0.108

RRIRTRPPRLPRPRPRPEHHPRP
shrunken log2 fold change: -0.203

RRIRTRPPRLPRPRPRPEIMPRP
shrunken log2 fold change: -0.468

RRIRTRPPRLPRPRPRPEIVPRP
shrunken log2 fold change: 0.00632

RRIRTRPPRLPRPRPRPEMWPRP
shrunken log2 fold change: 0.0446

RRIRTRPPRLPRPRPRPENAPRP
shrunken log2 fold change: -0.49

RRIRTRPPRLPRPRPRPENFPRP
shrunken log2 fold change: -0.0131

RRIRTRPPRLPRPRPRPENRPRP
shrunken log2 fold change: -0.0266
